Several values for one entry are separate records, joined by “and”; a condition that tells them apart may be missing. Identical values can stand only once. Like-named read-outs stand apart in the source and are kept apart here.
Experiments:
[1] = target: NaVAb1p (Alcanivorax borkumensis NaVAb1 'pore only' protein), crystallised from bicelles (Alcanivorax borkumensis); test: crystal structure
[2] = target: full-length NaVSp1 (from His-MBP-NaVSp1), reconstituted in lipid nanodiscs or amphipol A8-35 (Silicibacter pomeroyi); test: SEC-MALS
[3] = target: T1, full-length NaVSp1 (from His-MBP-NaVSp1), reconstituted in lipid nanodiscs or amphipol A8-35 (Silicibacter pomeroyi); test: SEC-MALS
T1 chain: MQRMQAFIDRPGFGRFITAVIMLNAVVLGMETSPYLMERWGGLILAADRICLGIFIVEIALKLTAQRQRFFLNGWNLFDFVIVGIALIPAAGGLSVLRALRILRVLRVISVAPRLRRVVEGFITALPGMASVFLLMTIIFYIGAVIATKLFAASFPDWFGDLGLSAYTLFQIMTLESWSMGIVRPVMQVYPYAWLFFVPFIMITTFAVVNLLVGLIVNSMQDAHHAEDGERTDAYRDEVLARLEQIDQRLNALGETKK

[4] = target: full-length NaVAe1 with C-terminal GFP (Alkalilimnicola ehrlichii, entry strain …, UniProt Q0ABW0); test: fluorescence-detection size-exclusion chromatography
[5] = target: full-length NaVSp1 with C-terminal GFP (Silicibacter (Ruegeria) pomeroyi, entry …, UniProt F7IVA8); test: as above

Molecule: NaVAb1p (Alcanivorax borkumensis NaVAb1 'pore only' protein), crystallised from bicelles (domain or fragment)
- stoichiometry N [1]: 4

Molecule: full-length NaVSp1 (from His-MBP-NaVSp1), reconstituted in lipid nanodiscs or amphipol A8-35 (natural protein)
- stoichiometry N [2]: 4 and 8

B1: sFab SAT09 (synthetic Fab from phage display, selected on NaVAe1/Sp1CTD in nanodiscs) (Fab, V domains shown)
VH: EVQLVESGGGLVQPGGSLRLSCAASGFNFSSSSIHWVRQAPGKGLEWVASISSSSGSTSYADSVKGRFTISADTSKNTAYLQMNSLRAEDTAVYYCARTYGWYYSWWWAFDYWGQGTLVTVSS
VL: DIQMTQSPSSLSASVGDRVTITCRASQSVSSAVAWYQQKPGKAPKLLIYSASSLYSGVPSRFSGSRSGTDFTLTISSLQPEDFATYYCQQGDPRLVTFGQGTKVEIK
- stoichiometry N [3]: 2 SAT09 sFabs to one channel
- binding result [4]: binds
- binding result [5]: binds

Source: paper PMC9809158 (Nature structural & molecular biology, 2022)
